# Test results from paper PMC3068233.
# Changes are numbered by the printed parent chain.
# T1: HMGB1 domain A C44S (UniProt P09429 9-79, C45S)
# T1 sequence: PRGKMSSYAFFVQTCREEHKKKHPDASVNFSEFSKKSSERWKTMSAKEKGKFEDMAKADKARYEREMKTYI
# T2: HMGB1 domain A C22S/C44S (UniProt P09429 9-79, C23S;C45S)
# T2 sequence: T1 sequence with C15S
# T3: HMGB1 domain A C22A (UniProt P09429 9-79, C23A)
# T3 sequence: T1 sequence with C15A, S37C
# T4: HMGB1 domain A C44A (UniProt P09429 9-79, C45A)
# T4 sequence: T1 sequence with S37A
# T5: HMGB1 domain A wild type (UniProt P09429 9-79)
# T5 sequence: T1 sequence with S37C
# T6: HMGB1 domain A C22A/C44A (UniProt P09429 9-79, C23A;C45A)
# T6 sequence: T1 sequence with C15A, S37A
# B1: 25-bp cisplatin-modified TGGA probe (dsDNA)
# DNA 1: CCTCTCCTCTCTGGATCTTCTCTCC
# DNA 2: GGAGAGAAGATCCAGAGAGGAGAGG
# modifications: cisplatin 1,2-d(GpG) intrastrand cross-link at N7 of G13 and G14 of strand 1
# Tests used:
# HMGB1 domain A C44S = biological target: T1, HMGB1 domain A C44S; assay: EMSA
# HMGB1 domain A C22S/C44S = biological target: T2, HMGB1 domain A C22S/C44S; assay: EMSA
# HMGB1 domain A C22A = biological target: T3, HMGB1 domain A C22A; assay: EMSA
# HMGB1 domain A C44A = biological target: T4, HMGB1 domain A C44A; assay: EMSA
# HMGB1 domain A wild type = biological target: T5, HMGB1 domain A wild type; assay: EMSA
# HMGB1 domain A C22A/C44A = biological target: T6, HMGB1 domain A C22A/C44A; assay: hydroxyl radical footprinting
binder,measurement,setting,value
B1,Kd,HMGB1 domain A C44S,1.6 ± 0.07 nM
same,Kd,HMGB1 domain A C22S/C44S,1.65 ± 0.37 nM
same,Kd,HMGB1 domain A C22A,1.12 ± 0.14 nM
same,Kd,HMGB1 domain A C44A,2.41 ± 0.31 nM
same,Kd,HMGB1 domain A wild type,0.7 ± 0.1 nM
same,binding result,HMGB1 domain A C22A/C44A,binds
